According to PMC3900769 (Journal of molecular biology, 2009):
Values joined by “and” are separate entries in the source; they are usually repeats but may differ in a detail not shown here. Equal entries are not always repeated.

Tests used:
[1] = target: HPV11 E6 4C/4S separated from the MBP tag (human papillomavirus type 11) (UniProt P04019); assay: SEC
[2] = target: E6AP peptide (Homo sapiens) (UniProt Q05086); assay: SPR; conditions: cited from earlier work
[3] = target: HPV11 MBP-E6 4C/4S (human papillomavirus type 11) (UniProt P04019); assay: SEC
SEC = target: the molecule itself; assay: SEC

Chain of E6AP peptide (Homo sapiens) (Q05086 whole entry): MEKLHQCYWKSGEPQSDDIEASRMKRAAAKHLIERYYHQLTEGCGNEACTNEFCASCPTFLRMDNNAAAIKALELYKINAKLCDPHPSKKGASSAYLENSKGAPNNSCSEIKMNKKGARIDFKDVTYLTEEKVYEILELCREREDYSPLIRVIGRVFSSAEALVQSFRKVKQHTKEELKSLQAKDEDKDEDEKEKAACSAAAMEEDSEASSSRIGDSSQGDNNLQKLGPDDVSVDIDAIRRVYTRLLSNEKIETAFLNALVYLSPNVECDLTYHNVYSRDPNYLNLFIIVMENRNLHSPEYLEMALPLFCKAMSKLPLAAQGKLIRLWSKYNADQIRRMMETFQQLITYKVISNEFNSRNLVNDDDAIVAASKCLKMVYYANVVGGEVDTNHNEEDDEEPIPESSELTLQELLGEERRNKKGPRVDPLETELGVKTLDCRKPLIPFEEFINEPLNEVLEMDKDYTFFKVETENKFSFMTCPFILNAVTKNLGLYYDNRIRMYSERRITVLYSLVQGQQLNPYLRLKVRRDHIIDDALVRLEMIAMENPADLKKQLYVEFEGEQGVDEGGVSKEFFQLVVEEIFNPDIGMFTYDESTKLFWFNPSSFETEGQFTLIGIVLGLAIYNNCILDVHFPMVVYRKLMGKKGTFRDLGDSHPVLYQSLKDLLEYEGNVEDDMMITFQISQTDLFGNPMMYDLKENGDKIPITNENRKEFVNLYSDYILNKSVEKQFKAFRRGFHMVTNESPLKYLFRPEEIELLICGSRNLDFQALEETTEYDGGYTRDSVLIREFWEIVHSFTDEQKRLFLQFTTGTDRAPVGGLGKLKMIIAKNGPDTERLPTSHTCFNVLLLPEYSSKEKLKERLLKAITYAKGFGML

Molecule: HPV11 E6 4C/4S separated from the MBP tag (from UniProt P04019 1-150) (natural protein)
- stoichiometry N [1]: 3 and 2

Molecule: HPV18 E6 (from UniProt P06463)
- Kd [2]: 30 µM

Molecule: HPV11 MBP-E6 4C/4S (from UniProt P04019 1-150) (natural protein)
- stoichiometry N [3]: 2 and 3

B1: wild-type BPV1 MBP-E6 (natural protein)
chain: MDLKPFARTNPFSGLDCLWCREPLTEVDAFRCMVKDFHVVIREGCRYGACTICLENCLATERRLWQGVPVTGEEAELLHGKTLDRLCIRCCYCGGKLTKNEKHRHVLFNEPFCKTRANIIRGRCYDCCRHGSRSKYP
- binding result (SEC): binds

B2: wild-type HPV11 MBP-E6 (natural protein)
chain: MESKDASTSATSIDQLCKTFNLSLHTLQIQCVFCRNALTTAEIYAYAYKNLKVVWRDNFPFAACACCLELQGKINQYRHFNYAAYAPTVEEETNEDILKVLIRCYLCHKPLCEIEKLKHILGKARFIKLNNQWKGRCLHCWTTCMEDLLP
- stoichiometry N (SEC): 2
